Test results taken from patent US20240132578A1 (published 2024).

How the values were obtained:
[1] = biological target: HIV-1 JR-CSF envelope protein (Env) on pseudotyped virus (HIV-1 isolate JR-CSF, UniProt P20871 32-848); assay: cell-based or functional assay
[2] = biological target: HIV-1 SF162 envelope protein (Env) on pseudotyped virus (HIV-1 isolate SF162, UniProt P19550 32-847); assay: cell-based or functional assay
[3] = biological target: HIV-1 92TH021 envelope protein (Env) on pseudotyped virus (HIV-1 strain 92TH021); assay: cell-based or functional assay
[4] = biological target: HIV-1 93IN905 envelope protein (Env) on pseudotyped virus (HIV-1 strain 93IN905); assay: cell-based or functional assay
[5] = biological target: HIV-1 94UG103 envelope protein (Env) on pseudotyped virus (HIV-1 strain 94UG103); assay: cell-based or functional assay
[6] = biological target: HIV-1 NL43 envelope protein (Env) on pseudotyped virus (HIV-1 strain NL43); assay: cell-based or functional assay
[7] = biological target: HIV-1 92BR020 envelope protein (Env) on pseudotyped virus (HIV-1 strain 92BR020); assay: cell-based or functional assay
[8] = biological target: aMLV envelope on pseudotyped virus (negative control) (aMLV); assay: cell-based or functional assay
[9] = biological target: HIV-1 IAVI_C22 envelope protein (Env) on pseudotyped virus (HIV-1 strain IAVI C22); assay: cell-based or functional assay
[10] = biological target: HIV-1 93UG077 Env (clade A pseudovirus) (HIV-1); assay: cell-based or functional assay
[11] = biological target: HIV-1 APV-6 Env (clade B pseudovirus) (HIV-1); assay: cell-based or functional assay
[12] = biological target: HIV-1 92RW020 Env (clade A pseudovirus) (HIV-1); assay: cell-based or functional assay
[13] = biological target: HIV-1 IAVI-C18 Env (clade C pseudovirus) (HIV-1); assay: cell-based or functional assay
[14] = biological target: HIV-1 IAVI-C3 Env (clade C pseudovirus) (HIV-1); assay: cell-based or functional assay
[15] = biological target: HIV-1 94UG103 Env (clade A pseudovirus) (HIV-1); assay: cell-based or functional assay
[16] = biological target: HIV-1 APV-17 Env (clade B pseudovirus) (HIV-1); assay: cell-based or functional assay
[17] = biological target: HIV-1 92BR020 Env (clade B pseudovirus) (HIV-1); assay: cell-based or functional assay
[18] = biological target: HIV-1 CMU02 Env (CRF01_AE pseudovirus) (HIV-1); assay: cell-based or functional assay
[19] = biological target: HIV-1 JRCSF Env (clade B pseudovirus) (HIV-1, UniProt P20871 32-848); assay: cell-based or functional assay
[20] = biological target: aMLV envelope (negative control pseudovirus); assay: cell-based or functional assay
[21] = biological target: HIV-1 APV-13 Env (clade B pseudovirus) (HIV-1); assay: cell-based or functional assay
[22] = biological target: HIV-1 92UG005 Env (clade D pseudovirus) (HIV-1); assay: cell-based or functional assay
recombinant gp41 HxB2 = biological target: T1, recombinant gp41 HxB2 (HIV-1, UniProt P04578 541-682); assay: screening ELISA on recombinant gp41 (column mAb Specificity)
T1 construct: domain: gp41

recombinant gp41HxB2 = biological target: T2, recombinant gp41HxB2 (HIV-1 clone HxB2, UniProt P04578 541-682); assay: ELISA, initial screen of B cell culture supernatants
T2 construct: domain: gp41

[23] = biological target: HIV-1 IAVI-C22 Env (clade C pseudovirus) (HIV-1); assay: cell-based or functional assay
[24] = biological target: HIV-1 92UG024 Env (clade D pseudovirus) (HIV-1); assay: cell-based or functional assay
[25] = biological target: HIV-1 92TH021 Env (CRF01_AE pseudovirus) (HIV-1); assay: cell-based or functional assay
[26] = biological target: HIV-1 93IN905 Env (clade C pseudovirus) (HIV-1); assay: cell-based or functional assay
[27] = biological target: T3, recombinant, monomeric gp120 JR-CSF (HIV-1, UniProt P20871 32-503); assay: screening ELISA on recombinant gp120 (column mAb Specificity)
T3 construct: domain: gp120; also called JR-CSF gp120

[28] = biological target: T4, HIV-1 YU2 gp160 expressed on the cell surface (HIV-1 strain YU2, UniProt P35961 32-843); assay: flow cytometry on transfected cells (FIG. 8)
T4 construct: whole, on cells

[29] = biological target: T5, V1/V2 deleted HIV-1JR-CSF Env expressed on transfected cells (HIV-1 strain JR-CSF, UniProt P20871 32-848); assay: flow cytometry on transfected 293T cells (FIG. 13E)
T5 construct: whole, on cells; also called variable loop deleted HIV-1JR-CSF variant (V1/V2)

[30] = biological target: T6, V3 deleted HIV-1JR-CSF Env expressed on transfected cells (HIV-1 strain JR-CSF, UniProt P20871 32-848); assay: as above
T6 construct: whole, on cells; also called variable loop deleted HIV-1JR-CSF variant (V3)

[31] = biological target: T7, recombinant, monomeric gp120JR-CSF (HIV-1 isolate JR-CSF, UniProt P20871 32-503); assay: ELISA, initial screen of B cell culture supernatants
T7 construct: domain: gp120; also called JR-CSF gp120; JR-CSFgp120

B1: 1460_G14 (PGG14) (antibody, human IgG1, kappa, V domains shown)
VH: QVLLVQSGTEVKKPGSSVKVSCQASGGAFSSYAFSWVRQAPGQGLEWMGMITPVFGETKYAPRFQGRLTLTAEESLSTTYMELRSLTSDDTAFYYCTRDRRVVPMATDNWLDPWGQGTLVTVSS
VL: DIQLTQSPSSLSASVGDRVTVTCRASQTIHTYLNWYQQIPGKAPKLLIYGASTLQSGVPSRFSGSGSGTDFTLTINSLQPEDFATYYCQQSYSTPRTFGQGTRLDIKR
IC50, Neutralizing Antibody Assay, Virus/Ab Incubation 1 hour [1]: > 50 µg/mL
IC50, Neutralizing Antibody Assay, Virus/Ab Incubation 18 hour [1]: > 50 µg/mL
IC50, Neutralizing Antibody Assay, Virus/Ab Incubation 1 hour [2]: 0.179 µg/mL
IC50, Neutralizing Antibody Assay, Virus/Ab Incubation 18 hour [2]: 0.0573 µg/mL
IC50, Neutralizing Antibody Assay, Virus/Ab Incubation 1 hour [3]: > 50 µg/mL
IC50, Neutralizing Antibody Assay, Virus/Ab Incubation 18 hour [3]: > 50 µg/mL
IC50, Neutralizing Antibody Assay, Virus/Ab Incubation 1 hour [4]: > 50 µg/mL
IC50, Neutralizing Antibody Assay, Virus/Ab Incubation 18 hour [4]: 3.17 µg/mL
IC50, Neutralizing Antibody Assay, Virus/Ab Incubation 1 hour [5]: > 50 µg/mL
IC50, Neutralizing Antibody Assay, Virus/Ab Incubation 18 hour [5]: > 50 µg/mL
IC50, Neutralizing Antibody Assay, Virus/Ab Incubation 1 hour [6]: 0.17 µg/mL
IC50, Neutralizing Antibody Assay, Virus/Ab Incubation 18 hour [6]: 0.05 µg/mL
IC50, Neutralizing Antibody Assay, Virus/Ab Incubation 1 hour [7]: > 50 µg/mL
IC50, Neutralizing Antibody Assay, Virus/Ab Incubation 18 hour [7]: > 50 µg/mL
IC50, Neutralizing Antibody Assay, Virus/Ab Incubation 1 hour [8]: > 50 µg/mL
IC50, Neutralizing Antibody Assay, Virus/Ab Incubation 18 hour [8]: > 50 µg/mL
IC50, Neutralizing Antibody Assay, Virus/Ab Incubation 1 hour [9]: > 50 µg/mL
IC50, Neutralizing Antibody Assay, Virus/Ab Incubation 18 hour [9]: > 50 µg/mL

B2: 1496_C09 (PG9) (TCN-109) (antibody, V domains shown)
VH: QRLVESGGGVVQPGSSLRLSCAASGFDFSRQGMHWVRQAPGQGLEWVAFIKYDGSEKYHADSVWGRLSISRDNSKDTLYLQMNSLRVEDTATYFCVREAGGPDYRNGYNYYDFYDGYYNYHYMDVWGKGTTVTVSS
VL: QSALTQPASVSGSPGQSITISCNGTSNDVGGYESVSWYQQHPGKAPKVVIYDVSKRPSGVSNRFSGSKSGNTASLTISGLQAEDEGDYYCKSLTSTRRRVFGTGTKLTVLG
IC50 (µg/mL), pseudovirus neutralization [10]: > 50 µg/mL
IC50 (µg/mL), pseudovirus neutralization [11]: 0.09 µg/mL
IC50 (µg/mL), pseudovirus neutralization [12]: 0.06 µg/mL
IC50 (µg/mL), pseudovirus neutralization [13]: 0.05 µg/mL
IC50 (µg/mL), pseudovirus neutralization [14]: 12.9 µg/mL
IC50 (µg/mL), pseudovirus neutralization [15]: 0.17 µg/mL
IC50 (µg/mL), pseudovirus neutralization [16]: 26.4 µg/mL
IC50 (µg/mL), pseudovirus neutralization [17]: > 50 µg/mL
IC50 (µg/mL), pseudovirus neutralization [18]: > 50 µg/mL
IC50 (µg/mL), pseudovirus neutralization [19]: < 0.0025 µg/mL
IC50 (µg/mL), pseudovirus neutralization [20]: > 50 µg/mL
IC50 (µg/mL), pseudovirus neutralization [21]: > 50 µg/mL
IC50 (µg/mL), pseudovirus neutralization [22]: > 50 µg/mL
binding result (recombinant gp41 HxB2): no binding

B3: 1496_C09 (PG9) (TCN-109) (antibody, V domains shown)
VH: B2 VH
VL: B2 VL
binding result (recombinant gp41HxB2): no binding

B4: 1443_C16 (PG16) (TCN-116) (antibody, V domains shown)
VH: QEQLVESGGGVVQPGGSLRLSCLASGFTFHKYGMHWVRQAPGKGLEWVALISDDGMRKYHSDSMWGRVTISRDNSKNTLYLQFSSLKVEDTAMFFCAREAGGPIWHDDVKYYDFNDGYYNYHYMDVWGKGTTVTVSS
VL: QSALTQPASVSGSPGQTITISCNGTSSDVGGFDSVSWYQQSPGKAPKVMVFDVSHRPSGISNRFSGSKSGNTASLTISGLHIEDEGDYFCSSLTDRSHRIFGGGTKVTVLG
IC50 (µg/mL), pseudovirus neutralization [10]: > 50 µg/mL
IC50 (µg/mL), pseudovirus neutralization [11]: 0.08 µg/mL
IC50 (µg/mL), pseudovirus neutralization [12]: 0.004 µg/mL
IC50 (µg/mL), pseudovirus neutralization [13]: 0.007 µg/mL
IC50 (µg/mL), pseudovirus neutralization [23]: 0.069 µg/mL
IC50 (µg/mL), pseudovirus neutralization [14]: 14.8 µg/mL
IC50 (µg/mL), pseudovirus neutralization [15]: 0.008 µg/mL
IC50 (µg/mL), pseudovirus neutralization [16]: > 50 µg/mL
IC50 (µg/mL), pseudovirus neutralization [17]: > 50 µg/mL
IC50 (µg/mL), pseudovirus neutralization [24]: > 50 µg/mL
IC50 (µg/mL), pseudovirus neutralization [18]: > 50 µg/mL
IC50 (µg/mL), pseudovirus neutralization [19]: < 0.0025 µg/mL
IC50 (µg/mL), pseudovirus neutralization [20]: > 50 µg/mL
IC50 (µg/mL), pseudovirus neutralization [21]: > 50 µg/mL
IC50 (µg/mL), pseudovirus neutralization [22]: > 50 µg/mL
IC50 (µg/mL), pseudovirus neutralization [25]: 0.13 µg/mL
IC50 (µg/mL), pseudovirus neutralization [26]: 0.1 µg/mL
binding result [27]: no binding
binding result (recombinant gp41 HxB2): no binding

B5: 1443_C16 (PG16) (TCN-116) (antibody, V domains shown)
VH: B4 VH
VL: B4 VL
binding result [28]: binds
binding result [29]: no binding
binding result [30]: no binding
binding result [31]: no binding
binding result (recombinant gp41HxB2): no binding
